Reference: US20090291081A1 (AbbVie / Abbott, published 2009)
Where “and” joins values, the source holds several entries; their conditions need not be identical. Equal values may be shown once.

T1: human IL-1α (human, UniProt P01583 113-271)
T1 sequence (looked up): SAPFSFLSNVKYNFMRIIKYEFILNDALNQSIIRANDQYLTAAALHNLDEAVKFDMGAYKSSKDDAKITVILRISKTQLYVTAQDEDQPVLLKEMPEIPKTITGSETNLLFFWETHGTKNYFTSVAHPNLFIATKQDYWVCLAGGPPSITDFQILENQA

T2: human IL-1α (human, UniProt P01583 113-271)
T2 construct: also called IL-1alpha; hIL-1α
T2 sequence (looked up): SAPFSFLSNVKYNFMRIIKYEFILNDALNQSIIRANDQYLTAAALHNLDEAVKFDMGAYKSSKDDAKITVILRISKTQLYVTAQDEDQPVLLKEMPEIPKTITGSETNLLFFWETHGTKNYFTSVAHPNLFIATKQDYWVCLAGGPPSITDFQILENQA


Tests used:
human IL-1β [1] = target: T3, human IL-1β (human, UniProt P01584 117-269); assay: cell-based or functional assay
human IL-1α [2] = target: T1, human IL-1α; assay: cell-based or functional assay
human IL-1β [3] = target: T3, human IL-1β; assay: cell-based or functional assay; remark: listed apart in the source
human IL-1α [4] = target: T1, human IL-1α; assay: cell-based or functional assay; remark: listed apart in the source
human IL-1α [5] = target: T2, human IL-1α; assay: Table 62 KD; BIAcore presumed
human IL-1α [6] = target: T2, human IL-1α; assay: Table 62 IC50; RBA presumed
human IL-1α [7] = target: T2, human IL-1α; assay: cell-based or functional assay; remark: listed apart in the source
human IL-1β [8] = target: T3, human IL-1β; assay: cell-based or functional assay; remark: listed apart in the source
human IL-1α [9] = target: T1, human IL-1α; assay: cell-based or functional assay; remark: listed apart in the source

| MRC5 IL-1β (human IL-1β [3]) | MRC5 IL-1α (human IL-1α [4]) | Kd (human IL-1α [5]) | IC50 (human IL-1α [6]) | ND50 (human IL-1α [7]) | Binder | also measured |
| --- | --- | --- | --- | --- | --- | --- |
| 0.975 nM | 400 nM |  |  |  | ABT2-65-17/ABT1-141-25 hu IgG1/K wt (bispecific antibody, V domains shown) VH: EVQLLESGGGLVQPGGSLRLSCVASGFTFEDYQMGWVRQAPGKGLEWVSSISAMGNRTYYADSVKGRFTISRDDSKNTLYLQMNSLRAEDTAVYYCAQNLVRLGRSRWMFDYWGQGTLVTVSS VL: DIQMTQSPSSLSASVGDRVTITCRASQWIQKQLAWYQQKPGKAPKLLIYSSSYLQSGVPSRFSGSGSGTDFTLTISSLQPEDFATYYCQQHLRVPMTFGQGTKVEIKR | IL-1β IC50 (human IL-1β [1]): 1 nM; IL-1α IC50 (human IL-1α [2]): 400 nM |
| 0.197 nM | 0.014 nM |  |  |  | ABT2-65-166/ABT1-95-A5 hu IgG1mut 234, 235/K (bispecific antibody, V domains shown) VH: EVQLLESGGGLVQPGGSLRLSCAASGFTFEDYQMGWVRQAPGKGLEWVSSISAMGGRTYYADSVKGRFTISRDNSKNTLYLQMNSLRAEDTAVYYCAQNLVRLGRSRWMFDYWGQGTLVTVSS VL: DIQMTQSPSSLSASVGDRVTITCRASRTPVRNLRWYQQKPGKAPKLLIYSRSFLEPGVPSRFSGSGSGTDFTLTISSLQPEDFATYHCLQGYRWPPTFGQGTKVEIKR | IL-1β IC50 (human IL-1β [1]): 0.145 nM; IL-1α IC50 (human IL-1α [2]): 0.015 nM |
|  |  | 1.5 nM | 0.7 nM | 2 nM | ABT1-95-4 (other, VK dAb) VL: DIQMTQSPSSLSASVGDRVTITCRASQPIVRNLRWYQQKPGKAPKLLIYSSSYLQSGVPSRFSGSGSGTDFTLTISSLQPEDFATYHCQQGYRWPVTFGQGTKVEIKR |  |
|  |  | 2.1 nM | 0.8 nM | 1 nM | ABT1-95-8 (other, VK dAb) VL: DIQMTQSPSSLSASVGDRVTITCRASQPIQGNLRWYQQKPGKAPKLLIYSSSYLERGVPSRFSGSGSGTDFTLTISSLQPEDFATYHCQQGYRWPVTFGQGTKVEIKR |  |
|  |  | 0.9 nM | 0.3 nM | 0.12 nM | ABT1-95-13 (other, VK dAb) VL: DIQMTQSPSSLSASVGDRVTITCRASQPIVRNLRWYQQKPGKAPKLLIYSSSYLERGVPSRFSGSGSGTDFTLTISSLQPEDFATYHCQQGYRWPVTFGQGTKVEIKR |  |
|  |  | 0.4 nM |  |  | ABT1-95-15 (other, VK dAb) VL: DIQMTQSPSSLSASVGDRVTITCRASQPIVRNLRWYQQKPGKAPKLLIYSSSYLEPGVPSRFSGSGSGTDFTLTISSLQPEDFATYHCQQGYRWPVTFGQGTKVEIKR |  |
|  |  | 0.9 nM | 0.8 nM |  | ABT1-95-10 (other, VK dAb) VL: DIQMTQSPSSLSASVGDRVTITCRASQPIQGNLRWYQQKPGKAPKLLIYSSSYLERGVPSRFSGSGSGTDFTLTISSLHPEDLATYHCQQGYRWPVTFGQGTKVEIKR |  |
|  |  | 1.1 nM | 0.9 nM | 0.3 nM | ABT1-95-11 (other, VK dAb) VL: DIQMTQSPSSLSASVGDRVTITCRASQPIQGNLRWYQQKPGIAPKLLIYSSSYLERGVPSRFSGSGSGTDFTLTISSLHPEDLATYHCQQGYRWPVTFGQGTKVEIKR |  |
|  |  | 7 nM | 4 nM | 80 nM | ABT1-95-3 (other, VK dAb) VL: DIQMTQSPSSLSASVGDRVTITCRASQPIHGNLRWYQQKPGKAPKLLIYSSSYLQSGVPSRFSGSGSGTDFTLTISSLQPEDFATYHCQQGYRWPVTFGQGTKVEIKR |  |
|  |  | 2.1 nM | 0.8 nM | 1 nM | ABT1-95-6 (other, VK dAb) VL: DIQMTQSPSSLSASVGDRVTITCRASQPIQGNLRWYQQKPGKAPKLLIYSSSYLESGVPSRFSGSGSGTDFTLTISSLQPEDFATYHCQQGYRWPVTFGQGTKVEIKR |  |
|  |  | 0.9 nM | 0.8 nM |  | ABT1-95-12 (other, VK dAb) VL: DIQMTQSPSSLSASVGDRVTITCRASQPIHGNLRWYQQKPGKAPKLLIYSSSYLESWVPSRFSGSGSGTDFTLTISSLQPEDFATYHCQQGYRWPVTFGQGTKVEIKR |  |
|  |  | 1.2 nM | 0.3 nM | 0.25 nM | ABT1-95-14 (other, VK dAb) VL: DIQMTQSPSSLSASVGDRVTITCRASQPIVKNLRWYQQKPGKAPKLLIYSSSYLERGVPSRFSGSGSGTDFTLTISSLQPEDFATYHCQQGYRWPVTFGQGTKVEIKR |  |
|  |  | 1 nM | 0.8 nM |  | ABT1-95-9 (other, VK dAb) VL: DIQMTQSPSSLSASVGDRVTITCRASQPIQGNLRWYQQKPGKAPKLLIYSSSYLERGVPSRFSGSGSGTDFTLTISSLHPEDFATYHCQQGYRWPVTFGQGTKVEIKR |  |
| 0.009 nM | 259 nM |  |  |  | ABT2-108-538x/ABT1-122-511 hu IgG1/K wt (bispecific antibody, V domains shown) VH: EVQLLESGGGLVQPGGSLRLSCAASGFTFADEGMMWVRQAPGKGLEWVSRITYSGKNTYYADSVKGRFTISRDNSKNTLYLQMNSLRAEDTAVYYCAKYTGRILGHHLFDYWGQGTLVTVSS VL: DIQMTQSPSSLSASVGDRVTITCRASQPIWTELNWYQQKPGKAPKLLIYGSSSLQRGVPSRFSGSGSGTDFTLTISSLQPEDFATYYCKQFAYFPATFGQGTKVEIKR | IL-1β IC50 (human IL-1β [1]): 0.006 nM and 0.009 nM and 0.01 nM |
| 0.0094 nM | 75 nM |  |  |  | ABT2-108-538x/ABT1-122-750x hu IgG1/K wt (bispecific antibody, V domains shown) VH: EVQLLESGGGLVQPGGSLRLSCAASGFTFADEGMMWVRQAPGKGLEWVSRITYSGKNTYYADSVKGRFTISRDNSKNTLYLQMNSLRAEDTAVYYCAKYTGRILGHHLFDYWGQGTLVTVSS VL: DIQMTQSPSSLSASVGDRVAITCSASQHIWTEISWYQQKPGKAPKLLIYGSASRQKGVPSRFSGSGSGTDFTLTISSLQPEDFATYYCKQFAYFPNTFGQGTKVEIKR | IL-1β IC50 (human IL-1β [1]): 0.005 nM and 0.008 nM and 0.01 nM |
| 1 nM | 1000 nM |  |  |  | ABT2-108-521/ABT1-122 hu IgG1/K wt (bispecific antibody, V domains shown) VH: EVQLLESGGGLVQPGGSLRLSCAASGFTFAEYTMMWVRQAPGKGLEWVSRIGQDGKNTYYADSVKGRFTISRDNSKNTLYLQMNSLRAEDTAVYYCAKYTGRILGHHLFDYWGQGTLVTVSS VL: DIQMTQSPSSLSASVGDRVTITCRASQPIWTELNWYQQKPGKAPKLLIYGSSSLQSGVPRFSGSGSGTDFTLTISSLQPEDFATYYCQQFAYFPATFGQGTKVEIKR | IL-1β IC50 (human IL-1β [1]): 0.2 nM and 0.4 nM; IL-1α IC50 (human IL-1α [2]): 1000 nM |
| 0.023 nM | 0.032 nM |  |  |  | ABT2-108-538x/ABT1-95-A3 hu IgG1mut 234, 235/K (bispecific antibody, V domains shown) VH: EVQLLESGGGLVQPGGSLRLSCAASGFTFADEGMMWVRQAPGKGLEWVSRITYSGKNTYYADSVKGRFTISRDNSKNTLYLQMNSLRAEDTAVYYCAKYTGRILGHHLFDYWGQGTLVTVSS VL: DIQMTQSPSSLSASVGDRVTITCRASKPGVRNMRWYQQKPGKAPKLLIYSVSYLEPGVPSRFSGSGSGTDFTLTISSLQPEDFATYHCLQGYRWPPTFGQGTKVEIKR | IL-1β IC50 (human IL-1β [1]): 0.035 nM; IL-1α IC50 (human IL-1α [2]): 0.095 nM |
|  |  |  |  |  | Fab ABT1-96/ABT2-42 (Fab, V domains shown) VH: EVQLLESGGGLVQPGGSLRLSCAASGFTFNQYNMFWVRQAPGKGLEWVSVISGSGRFTYADSVKGRFTISRDNSKNTLYLQMNSLRAEDTAVYYCAKGWWRRDPPFDYWGQGTLVTVSS VL: DIQMTQSPSSLSASVGDRVTITCRASQYIEKWLTWYQQKPGKAPTLLIYRGSLLQSGVPRFSGSGSGTDFTLTISSLQPEDFATYYCQQTEYWPFTFGQGTKVEIKR | Fab IL-1β ND10 (human IL-1β [8]): 10 nM; Fab IL-1α ND10 (human IL-1α [9]): 3 nM |
|  |  |  |  |  | Fab ABT1-96/ABT2-13 (Fab, V domains shown) V domain 1: EVQLLESGGGLVQPGGSLRLSCAASGFTFNQYNMFWVRQAPGKGLEWVSVISGSGRFTYADSVKGRFTISRDNSKNTLYLQMNSLRAEDTAVYYCAKGWWRRDPPFDYWGQGTLVTVSS V domain 2: EVQLLESGGGLVQPGGSLRLSCAASGFTFRDYVMYWARQAPGKGLEWVSRIDPMGSSTYYADSVKGRFTISRDNSKNTLYLQMNSLRAEDTAVYYCAKPEGNFDYWGQGTLVTVSS | Fab IL-1β ND10 (human IL-1β [8]): 80 nM; Fab IL-1α ND10 (human IL-1α [9]): 0.9 nM |
| 22 nM | 1500 nM |  |  |  | ABT2-108/ABT1-141 hu IgG1/K wt (bispecific antibody, V domains shown) VH: EVQLLESGGGLVQPGGSLRLSCAASGFTFAEYTMMWVRQAPGKGLEWVSRIGQDGKNTYYADSVKGRFTISRDNSKNTLYLQMNSLRAEDTAVYYCAKYTGRVGVHHLFDYWGQGTLVTSS VL: DIQMTQSPSSLSASVGDRVTITCRASQWIQKQLAWYQQKPGKAPKLLIYSSSYLQSGVPRFSGSGSGTDFTLTISSLQPEDFATYYCQQHLRVPFTFGQGTKVEIKR | IL-1α IC50 (human IL-1α [2]): 1000 nM and 1500 nM and 3000 nM |
|  |  |  |  |  | Fab ABT1-122/ABT2-108 (Fab, V domains shown) VH: EVQLLESGGGLVQPGGSLRLSCAASGFTFAEYTMMWVRQAPGKGLEWVSRIGQDGKNTYYADSVKGRFTISRDNSKNTLYLQMNSLRAEDTAVYYCAKYTGRVGVHHLFDYWGQGTLVTSS VL: DIQMTQSPSSLSASVGDRVTITCRASQPIWTELNWYQQKPGKAPKLLIYGSSSLQSGVPRFSGSGSGTDFTLTISSLQPEDFATYYCQQFAYFPATFGQGTKVEIKR | Fab IL-1β ND10 (human IL-1β [8]): 50 nM; Fab IL-1α ND10 (human IL-1α [9]): 3 nM |
|  |  |  |  |  | Fab ABT1-141/ABT2-108 (Fab, V domains shown) VH: EVQLLESGGGLVQPGGSLRLSCAASGFTFAEYTMMWVRQAPGKGLEWVSRIGQDGKNTYYADSVKGRFTISRDNSKNTLYLQMNSLRAEDTAVYYCAKYTGRVGVHHLFDYWGQGTLVTSS VL: DIQMTQSPSSLSASVGDRVTITCRASQWIQKQLAWYQQKPGKAPKLLIYSSSYLQSGVPRFSGSGSGTDFTLTISSLQPEDFATYYCQQHLRVPFTFGQGTKVEIKR | Fab IL-1β ND10 (human IL-1β [8]): 15 nM; Fab IL-1α ND10 (human IL-1α [9]): 10 nM |
